Test results from PMC7279355 (International Journal of Molecular Sciences, 2020).
Ends that are not written are not given here.

Target: T1, PD-L1, histidine (His)-tagged (UniProt Q9NZQ7 19-238)
T1 construct: PD-L1 (programmed cell death-ligand 1) of the AlphaLISA PD-1/PD-L1 kit; Held on anti-His-conjugated acceptor beads; also called His-tagged PD-L1; programmed cell death-ligand 1; source: bought: PerkinElmer AlphaLISA assay kit (AL356 HV/C/F)
Assay: AlphaScreen or HTRF; AlphaLISA kit AL356 HV/C/F (PerkinElmer), competition: biotin-conjugated PD-1 on streptavidin-coated donor beads, His-tagged PD-L1 on anti-His acceptor beads; 2 uL each of inhibitor dilution, PD-L1 (25 nM), PD-1 (25 nM) and the two beads in 10 uL; 25 °C, 90 min; IC50 from sigmoidal fit
Conditions: both partners purified

T1 sequence (Q9NZQ7 19-238): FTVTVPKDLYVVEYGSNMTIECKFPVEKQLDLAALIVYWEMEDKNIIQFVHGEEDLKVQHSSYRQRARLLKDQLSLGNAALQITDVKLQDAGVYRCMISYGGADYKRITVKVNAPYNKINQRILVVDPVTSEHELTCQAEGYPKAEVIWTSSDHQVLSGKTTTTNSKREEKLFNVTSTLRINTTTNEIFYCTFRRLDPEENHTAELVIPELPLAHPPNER

Binder: YGGG (not fully specified; X (position 1) = biphenyl-conjugated bromotyrosine) [XGGG]
- IC50: 6770 µM

Binder: WRYNQ (not fully specified; X (position 3) = biphenyl-conjugated bromotyrosine) [WRXNQ]
- IC50: 163 µM

Binder: YGGGGG (not fully specified; X (position 1) = biphenyl-conjugated bromotyrosine) [XGGGGG]
- IC50: 846 µM

Binder: WYG (not fully specified; X (position 2) = biphenyl-conjugated bromotyrosine) [WXG]
- IC50: 405 µM

Binder: YGGGG (not fully specified; X (position 1) = biphenyl-conjugated bromotyrosine) [XGGGG]
- IC50: 648 µM

Binder: WRYNN (not fully specified; X (position 3) = biphenyl-conjugated bromotyrosine) [WRXNN]
- IC50: 157 µM

Binder: NYR (not fully specified; X (position 2) = biphenyl-conjugated bromotyrosine) [NXR]
- IC50: 982 µM

Binder: CYR (not fully specified; X (position 2) = biphenyl-conjugated bromotyrosine) [CXR]
- IC50: 550 µM

Binder: QYQ (not fully specified; X (position 2) = biphenyl-conjugated bromotyrosine) [QXQ]
- IC50: 1960 µM

Binder: ERYNK (not fully specified; X (position 3) = biphenyl-conjugated bromotyrosine) [ERXNK]
- IC50: 15.6 µM

Binder: CYA (not fully specified; X (position 2) = biphenyl-conjugated bromotyrosine) [CXA]
- IC50: 665 µM

Binder: YHP (not fully specified; X (position 1) = biphenyl-conjugated bromotyrosine) [XHP]
- IC50: 359 µM

Binder: YGG (not fully specified; X (position 1) = biphenyl-conjugated bromotyrosine) [XGG]
- IC50: 6500 µM

Binder: RYN (not fully specified; X (position 2) = biphenyl-conjugated bromotyrosine) [RXN]
- IC50: 405 µM

Binder: YNH (not fully specified; X (position 1) = biphenyl-conjugated bromotyrosine) [XNH]
- IC50: 313 µM

Binder: YRRRR (not fully specified; X (position 1) = biphenyl-conjugated bromotyrosine) [XRRRR]
- IC50: 436 µM

Binder: YNL (not fully specified; X (position 1) = biphenyl-conjugated bromotyrosine) [XNL]
- IC50: 855 µM

Binder: Tyr-Tyr-Cys (not fully specified (residue 2)) [YXC]
- IC50: 465 µM

Binder: SYR (not fully specified; X (position 2) = biphenyl-conjugated bromotyrosine) [SXR]
- IC50: 796 µM

Binder: GYG (not fully specified; X (position 2) = biphenyl-conjugated bromotyrosine) [GXG]
- IC50: 676 µM

Binder: YCSE (not fully specified; X (position 1) = biphenyl-conjugated bromotyrosine) [XCSE]
- IC50: 1560 µM
